Data published in IntAct's records for PubMed 31515488.

B1: Cilium assembly protein DZIP1L (Homo sapiens), Q8IYY4 (parent)
chain: MQSPAATAEGLSGPLFGAYTFPTFKFQPRHDSMDWRRISTLDVDRVARELDVATLQENIAGITFCNLDREVCSRCGQPVDPALLKVLRLAQLIIEYLLHCQDCLSASVAQLEARLQTSLGQQQRGQQELGRQADELKGVREESRRRRKMISTLQQLLMQTGTHSYHTCHLCDKTFMNATFLRGHIQRRHAGVAEGGKQKKQEQPVEEVLEELRAKLKWTQGELEAQREAERQRQLQEAELIHQREIEAKKEFDKWKEQEWTKLYGEIDKLKKLFWDEFKNVAKQNSTLEEKLRALQSHSVMESKLGSLRDEESEEWLRQARELQALREKTEIQKTEWKRKVKELHEEHMAEKKELQEENQRLQASLSQDQKKAAAQSQCQISTLRAQLQEQARIIASQEEMIQSLSLRKVEGIHKVPKAVDTEEDSPEEEMEDSQDEQHKVLAALRRNPTLLKHFRPILEDTLEEKLESMGIRKDAKGISIQTLRHLESLLRVQREQKARKFSEFLSLRGKLVKEVTSRAKERQENGAVVSQPDGQPSVKSQQSTLVTREAQPKTRTLQVALPSTPAEPPPPTRQSHGSHGSSLTQVSAPAPRPGLHGPSSTPPSSGPGMSTPPFSSEEDSEGDRVQRVSLQPPKVPSRMVPRPKDDWDWSDTETSEENAQPPGQGSGTLVQSMVKNLEKQLEAPAKKPAGGVSLFFMPNAGPQRAATPGRKPQLSEDESDLEISSLEDLPLDLDQREKPKPLSRSKLPEKFGTGPQSSGQPRVPAW
B2: Radial spoke head protein 3 homolog (Homo sapiens), Q86UC2 (parent)
chain: MTVKPAKAASLARNLAKRRRTYLGGAAGRSQEPEVPCAAVLPGKPGDRNCPEFPPPDRTLGCWATDAAPAAGLCGAGSEPSIAPTSCAGNLPSRPPPLLSPLLASRNPCPWHYLHLSGSHNTLAPTCFKAKLHRKRGSQPPDMASALTDRTSRAPSTYTYTSRPRALPCQRSRYRDSLTQPDEEPMHYGNIMYDRRVIRGNTYALQTGPLLGRPDSLELQRQREARKRALARKQAQEQLRPQTPEPVEGRKHVDVQTELYLEEIADRIIEVDMECQTDAFLDRPPTPLFIPAKTGKDVATQILEGELFDFDLEVKPVLEVLVGKTIEQSLLEVMEEEELANLRASQREYEELRNSERAEVQRLEEQERRHREEKERRKKQQWEIMHKHNETSQKIAARAFAQRYLADLLPSVFGSLRDSGYFYDPIERDIEIGFLPWLMNEVEKTMEYSMVGRTVLDMLIREVVEKRLCMYEHGEDTHQSPEPEDEPGGPGAMTESLEASEFLEQSMSQTRELLLDGGYLQRTTYDRRSSQERKFMEERELLGQDEETAMRKSLGEEELS
partner: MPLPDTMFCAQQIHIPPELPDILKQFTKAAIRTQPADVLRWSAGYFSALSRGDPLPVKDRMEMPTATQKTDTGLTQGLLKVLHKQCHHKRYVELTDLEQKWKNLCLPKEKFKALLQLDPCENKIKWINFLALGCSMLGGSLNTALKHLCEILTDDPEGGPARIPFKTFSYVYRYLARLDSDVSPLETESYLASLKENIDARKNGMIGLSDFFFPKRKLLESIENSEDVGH

Variants of: B1
Conditions: with cep76_human CEP76, Q8TAP6
Chain of cep76_human CEP76, Q8TAP6 (Q8TAP6 whole entry): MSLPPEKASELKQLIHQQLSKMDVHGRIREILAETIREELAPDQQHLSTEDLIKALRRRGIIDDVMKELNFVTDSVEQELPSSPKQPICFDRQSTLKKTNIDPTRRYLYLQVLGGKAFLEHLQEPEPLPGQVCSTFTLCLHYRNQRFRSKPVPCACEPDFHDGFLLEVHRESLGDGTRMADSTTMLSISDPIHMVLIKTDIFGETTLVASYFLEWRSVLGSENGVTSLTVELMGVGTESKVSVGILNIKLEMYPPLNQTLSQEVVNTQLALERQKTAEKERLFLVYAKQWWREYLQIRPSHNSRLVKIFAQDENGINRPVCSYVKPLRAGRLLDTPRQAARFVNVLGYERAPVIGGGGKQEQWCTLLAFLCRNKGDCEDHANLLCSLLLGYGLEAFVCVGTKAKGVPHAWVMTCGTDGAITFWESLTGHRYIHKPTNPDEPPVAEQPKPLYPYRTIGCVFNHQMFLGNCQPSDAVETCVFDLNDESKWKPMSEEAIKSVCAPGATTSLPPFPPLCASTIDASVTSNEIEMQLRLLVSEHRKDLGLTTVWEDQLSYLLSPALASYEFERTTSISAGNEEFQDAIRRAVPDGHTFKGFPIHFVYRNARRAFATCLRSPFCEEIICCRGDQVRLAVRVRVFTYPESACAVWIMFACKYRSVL

effect of a mutation on the interaction | Variant
with no effect | R625H
with no effect | R88C
with no effect | G595E

Variants of: B2
Conditions: with rop1l_human ROPN1L

Variant | effect of a mutation on the interaction
MTVKPAKAASLARNLAKRRRTYLGGAAGRSQEPEVPCAAVLPGKPGDRNCPEFPPPDRTLGCWATDAAPAAGLCGAGSEPSIAPTSCAGNLPSRPPPLLSPLLASRNPCPWHYLHLSGSHNTLAPTCFKAKLHRKRGSQPPDMASALTDRTSRAPSTYTYTSRPRALPCQRSRYRDSLTQPDEEPMHYGNIMYDRRVIRGNTYALQTGPLLGRPDSLELQRQREARKRALARKQAQEQLRPQTPEPVEGRKHVDVQTELYLEEIADRIIEVDMECQTDAFLDRPPTPLFIPAKTGKDVATQILEGELFDFDLEVKPVLEVLVGKTIEQSLLEVMEEEELANLRASQREYEELRNSERAEVQRLEEQERRHREEKERRKKQQWEIMHKHNETSQKIAARAFAQRYLADLLPSVFGSLRDSGYFYDPIERDIEIGFLPWLMNEVEKTMEYSMVGRTVLDMLIREVVEKRLCMYEHGEDTHQSPEPKDEPGGPGAMTESLEASEFLEQSMSQTRELLLDGGYLQRTTYDRRSSQERKFMEERELLGQDEETAMRKSLGEEELS [E484K] | with no effect
MTVKPAKAASLARNLAKRRRTYLGGAAGRSQEPEVPCAAVLPGKPGDRNCPEFPPPDRTLGCWATDAAPAAGLCGAGSEPSIAPTSCAGNLPSRPPPLLSPLLASRNPCPWHYLHLSGSHNTLAPTCFKAKLHRKRGSQPPDMASALTDRTSRAPSTYTYTSRPRALPCQRSRYRDSLTQPDEEPMHYGNIMYDRRVIRGNTYALQTGPLLGWPDSLELQRQREARKRALARKQAQEQLRPQTPEPVEGRKHVDVQTELYLEEIADRIIEVDMECQTDAFLDRPPTPLFIPAKTGKDVATQILEGELFDFDLEVKPVLEVLVGKTIEQSLLEVMEEEELANLRASQREYEELRNSERAEVQRLEEQERRHREEKERRKKQQWEIMHKHNETSQKIAARAFAQRYLADLLPSVFGSLRDSGYFYDPIERDIEIGFLPWLMNEVEKTMEYSMVGRTVLDMLIREVVEKRLCMYEHGEDTHQSPEPEDEPGGPGAMTESLEASEFLEQSMSQTRELLLDGGYLQRTTYDRRSSQERKFMEERELLGQDEETAMRKSLGEEELS [R213W] | with no effect
MTVKPAKAASLARNLAKRRRTYLGGAAGRSQEPEVPCAAVLPGKPGDRNCPEFPPPDRTLGCWATDAAPAAGLCGAGSEPSIAPTSCAGNLPSRPPPLLSPLLASRNPCPWHYLHLSGSHNTLAPTCFKAKLHRKRGSQPPDMASALTDRTSRAPSTYTYTSRPRALPCQRSRYRDSLTQPDEEPMHYGNIMYDRRVIRGNTYALQTGPLLGQPDSLELQRQREARKRALARKQAQEQLRPQTPEPVEGRKHVDVQTELYLEEIADRIIEVDMECQTDAFLDRPPTPLFIPAKTGKDVATQILEGELFDFDLEVKPVLEVLVGKTIEQSLLEVMEEEELANLRASQREYEELRNSERAEVQRLEEQERRHREEKERRKKQQWEIMHKHNETSQKIAARAFAQRYLADLLPSVFGSLRDSGYFYDPIERDIEIGFLPWLMNEVEKTMEYSMVGRTVLDMLIREVVEKRLCMYEHGEDTHQSPEPEDEPGGPGAMTESLEASEFLEQSMSQTRELLLDGGYLQRTTYDRRSSQERKFMEERELLGQDEETAMRKSLGEEELS [R213Q] | with no effect

Next, values leading:

effect of a mutation on the interaction | Variant
with no effect | MTVKPAKAASLARNLAKRRRTYLGGAAGRSQEPEVPCAAVLPGKPGDRNCPEFPPPDRTLGCWATDAAPAAGLCGAGSEPSIAPTSCAGNLPSRPPPLLSPLLASRNPCPWHYLHLSGSHNTLAPTCFKAKLHRKRGSQPPDMASALTDRTSRAPSTYTYTSRPRALPCQRSRYRDSLTQPDEEPMHYGNIMYDRRVIRGNTYALQTGPLLGRPDSLELQRQREARKRALARKQAQEQLRPQTPEPVEGRKHVDVQTELYLEEIADRIIEVDMECQTDAFLDRPPTPLFIPAKTGKDVATQILEGELFDFDLEVKPVLEVLVGKTIEQSLLEVMEEEELANLRASQREYEELRNSERAEVQRLEEQERRHREEKERRKKQQWEIMHKHNETSQKIAARAFAQRYLADLLPSVFGSLRDSGYFYDPIERDIEIGFLPWLMNEVEKTMEYSMVGRTVLDMLIREVVEKRLCMYEHGEDTHQSPEPEDEPGGPGAMTESLEASEFLEQSMSQTRELLLDGDYLQRTTYDRRSSQERKFMEERELLGQDEETAMRKSLGEEELS [G518D]
with no effect | MTVKPAKAASLARNLAKRRRTYLGGAAGRSQEPEVPCAAVLPGKPGDRNCPEFPPPDRTLGCWATDAAPAAGLCGAGSEPSIAPTSCAGNLPSRPPPLLSPLLASRNPCPWHYLHLSGSHNTLAPTCFKAKLHRKRGSQPPDMASALTDRTSRAPSTYTYTSRPRALPCQRSRYRDSLTQPDEEPMHYGNIMYDRRVIRGNTYALQTGPLLGRPDSLELQRQREARKRALARKQAQEQLRPQTPEPVEGRKHVDVQTELYLEEIADRIIEVDMECQTDAFLDRPPTPLFIPAKTGKDVATQILEGELFDFDLEVKPVLEVLVGKTIEQSLLEVMEEEELANLRASQREYEELRNSERAEVQRLEEQERRHREEKERRKKQQWEIMHKHNETSQKIAAQAFAQRYLADLLPSVFGSLRDSGYFYDPIERDIEIGFLPWLMNEVEKTMEYSMVGRTVLDMLIREVVEKRLCMYEHGEDTHQSPEPEDEPGGPGAMTESLEASEFLEQSMSQTRELLLDGGYLQRTTYDRRSSQERKFMEERELLGQDEETAMRKSLGEEELS [R398Q]
with no effect | MTVKPAKAASLARNLAKRRRTYLGGAAGRSQEPEVPCAAVLPGKPGDRNCPEFPPPDRTLGCWATDAAPAAGLCGAGSEPSIAPTSCAGNLPSRPPPLLSPLLASRNPCPWHYLHLSGSHNTLAPTCFKAKLHRKRGSQPPDMASALTDRTSRAPSTYTYTSRPRALPCQRSRYRDSLTQPDEEPMHYGNIMYDRRVIRGNTYALQTGPLLGRPDSLELQRQREARKRALARKQAQEQLRPQTPEPVEGRKHVDVQTELYLEEIADRIIEVDMECQTDAFLDRPPTPLFIPAKTGKDVATQILEGELFDFDLEVKPVLEVLVGKTIEQSLLEVMEEEELANLRASQREYEELRNSERAEVQRLEEQERRHREEKERRKKQQWEIMHKHNETSQKIAARAFAQRYLADLLPSVFGSLRDSGYFYDPIERDIEIGFLPWLTNEVEKTMEYSMVGRTVLDMLIREVVEKRLCMYEHGEDTHQSPEPEDEPGGPGAMTESLEASEFLEQSMSQTRELLLDGGYLQRTTYDRRSSQERKFMEERELLGQDEETAMRKSLGEEELS [M439T]
with no effect | MTVKPAKAASLARNLAKRRRTYLGGAAGRSQEPEVPCAAVLPGKPGDRNCPEFPPPDRTLGCWATDAAPAAGLCGAGSEPSIAPTSCAGNLPSRPPPLLSPLLASRNPCPWHYLHLSGSHNTLAPTCFKAKLHRKRGSQPPDMASALTDRTSRAPSTYTYTSRPRALPCQRSRYRDSLTQPDEEPMHYGNIMYDRRVIRGSTYALQTGPLLGRPDSLELQRQREARKRALARKQAQEQLRPQTPEPVEGRKHVDVQTELYLEEIADRIIEVDMECQTDAFLDRPPTPLFIPAKTGKDVATQILEGELFDFDLEVKPVLEVLVGKTIEQSLLEVMEEEELANLRASQREYEELRNSERAEVQRLEEQERRHREEKERRKKQQWEIMHKHNETSQKIAARAFAQRYLADLLPSVFGSLRDSGYFYDPIERDIEIGFLPWLMNEVEKTMEYSMVGRTVLDMLIREVVEKRLCMYEHGEDTHQSPEPEDEPGGPGAMTESLEASEFLEQSMSQTRELLLDGGYLQRTTYDRRSSQERKFMEERELLGQDEETAMRKSLGEEELS [N201S]
